Assay results reported in patent publication US20220135690A1 (TWIST BIOSCIENCE, published 2022).

How the values were obtained:
[1] = molecular target: CXCR4 chemokine receptor (Pan troglodytes (Chimpanzee), UniProt P61072 1-352); test: cell-based or functional assay
[2] = molecular target: T1, CXCR4 chemokine receptor (UniProt P61072 1-352); test: HTRF ligand competition
T1 chain: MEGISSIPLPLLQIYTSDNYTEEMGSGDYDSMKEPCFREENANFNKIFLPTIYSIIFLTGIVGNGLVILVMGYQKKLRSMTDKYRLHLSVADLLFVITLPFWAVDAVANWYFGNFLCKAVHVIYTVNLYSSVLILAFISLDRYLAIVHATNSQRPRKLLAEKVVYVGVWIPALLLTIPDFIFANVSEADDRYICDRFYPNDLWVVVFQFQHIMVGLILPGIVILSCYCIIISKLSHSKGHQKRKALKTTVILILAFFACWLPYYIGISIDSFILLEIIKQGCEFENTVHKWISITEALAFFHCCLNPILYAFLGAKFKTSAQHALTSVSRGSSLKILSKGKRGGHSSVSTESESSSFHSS

B1: CXCR4-81-6 (antibody, V domains shown)
VH: EVQLVESGGGLVQAGGSLRLSCAASGRTFSSYAMGWFRQAPGKEREFVAAISWSGGSTYYADSVKGRFTISADNAKNTVYLQMNSLKPEDTAVYYCAAARGYWRWRLGRRYDYWGQGTQVTVSS
VL: DIQMTQSPSSLSASVGDRVTITCRASQSVTTYLNWYQQKPGKAPKLLIYGSSNLQSGVPSRFSGSGSGTDFTLTISSLQPEDFATYYCQQGYSTPWTFGGGTKVEIKR
**Q.** How did the “IC50 in cAMP assay” value [1] turn out when B1 was run?
**A.** 900 pM

**Q.** What about the IC50 [2] of the same binder?
**A.** 687 pM
